Assay results from patent US20210238289A1 (Biogen, published 2021).
Where a chain is given by its changes, count along the chain named. Names and notes keep the numbering of the source.

B1: H1L1 (antibody, V domains shown)
VH: EVQLVQSGAEVKKPGATVKISCKASGFNIKDTYMHWVQQAPGKGLEWMGRIDPASGDTKYDPKFQVRVTITADTSTDTAYMELSSLRSEDTAVYYCADGMWVSTGYALDFWGQGTLVTVSS
VL: SIVMTQSPDSLAVSLGERATINCKASQSVTNDVAWYQQKPGQPPKLLIYYASNRYTGVPDRFSGSGSGTDFTLTISSLQAEDVAVYFCQQDYSSPYTFGQGTKVEIK
notes: also called Design H1 / Design L1
B2: H1L0 (antibody, V domains shown)
VH: B1 VH
VL: B1 VL with S1D, F87Y
notes: also called Design H1 / Design L0
B3: H1L2 (antibody, V domains shown)
VH: B1 VH
VL: B1 VL with S67Y
notes: also called Design H1 / Design L2
B4: Chimeric HP1/2 (antibody, human IgG1, V domains shown)
VH: EVQLQQSGAELVKPGASVKLSCTASGFNIKDTYMHWVKQRPEQGLEWIGRIDPASGDTKYDPKFQVKATITADTSSNTAWLQLSSLTSEDTAVYYCADGMWVSTGYALDFWGQGTTVTVSS
VL: SIVMTQTPKFLLVSAGDRVTITCKASQSVTNDVAWYQQKPGQSPKLLIYYASNRYTGVPDRFTGSGYGTDFTFTISTVQAEDLAVYFCQQDYSSPYTFGGGTKLEIK
notes: also called chimerized HP1/2 antibody; chimeric mAb
B5: CN645 (hu5c8 IgG1 N297P, T299K) (antibody)
heavy: not shown
light: DIVLTQSPATLSVSPGERATISCRASQRVSSSTYSYMHWYQQKPGQPPKLLIKYASNLESGVPARFSGSGSGTDFTLTISSVEPEDFATYYCQHSWEIPPTFGGGTKLEIKRTVAAPSVFIFPPSDEQLKSGTASVVCLLNNFYPREAKVQWKVDNALQSGNSQESVTEQDSKDSTYSLSSTLTLSKADYEKHKVYACEVTHQGLSSPVTKSFNRGEC
B6: EAG2412 (hu5c8 S228P/N297Q, IgG4 CH1, IgG4 CH2, IgG1 CH3, aglycosylated) (antibody)
heavy: QVQLVQSGAEVVKPGASVKLSCKASGYIFTSYYMYWVKQAPGQGLEWIGEINPSNGDTNFNEKFKSKATLTVDKSASTAYMELSSLRSEDTAVYYCTRSDGRNDMDSWGQGTLVTVSSASTKGPSVFPLAPCSRSTSESTAALGCLVKDYFPEPVTVSWNSGALTSGVHTFPAVLQSSGLYSLSSVVTVPSSSLGTKTYTCNVDHKPSNTKVDKRVESKYGPPCPPCPAPEFLGGPSVFLFPPKPKDTLMISRTPEVTCVVVDVSQEDPEVQFNWYVDGVEVHNAKTKPREEQFQSTYRVVSVLTVLHQDWLNGKEYKCKVSNKGLPSSIEKTISKAKGQPREPQVYTLPPSRDELTKNQVSLTCLVKGFYPSDIAVEWESNGQPENNYKTTPPVLDSDGSFFLYSKLTVDKSRWQQGNVFSCSVMHEALHNHYTQKSLSLSP
light: B5 light
notes: also called N297Q IgG4-CH2/IgG1-CH3; copies: 2 + 2
B7: EAG2390 (hu5c8 IgG1 T299P) (antibody)
heavy: not shown
light: B5 light
B8: CN646 (hu5c8 IgG1 N297S, T299K) (antibody)
heavy: not shown
light: B5 light
B9: CN647 (hu5c8 IgG1 N297D, T299K) (antibody)
heavy: not shown
light: B5 light
B10: EAG2300 (hu5c8 IgG4 chimeric hinge + IgG1 CH3, glycosylated) (antibody)
heavy: QVQLVQSGAEVVKPGASVKLSCKASGYIFTSYYMYWVKQAPGQGLEWIGEINPSNGDTNFNEKFKSKATLTVDKSASTAYMELSSLRSEDTAVYYCTRSDGRNDMDSWGQGTLVTVSSASTKGPSVFPLAPCSRSTSESTAALGCLVKDYFPEPVTVSWNSGALTSGVHTFPAVLQSSGLYSLSSVVTVPSSSLGTKTYTCNVDHKPSNTKVDKRVESKYGPPCPPCPAPPVAGPSVFLFPPKPKDTLMISRTPEVTCVVVDVSQEDPEVQFNWYVDGVEVHNAKTKPREEQFNSTYRVVSVLTVLHQDWLNGKEYKCKVSNKGLPSSIEKTISKAKGQPREPQVYTLPPSRDELTKNQVSLTCLVKGFYPSDIAVEWESNGQPENNYKTTPPVLDSDGSFFLYSKLTVDKSRWQQGNVFSCSVMHEALHNHYTQKSLSLSPG
light: B5 light
modifications: N-terminal Q largely converted to pyroglutamic acid; N-linked G0F/G1F/G2F glycans (mass spectrometry)
notes: also called pEAG2300; copies: 2 + 2
B11: EC331 (hu5c8 IgG4.P T299K, T307P, IgG4 CH2/IgG1 CH3 chimera, aglycosylated) (antibody)
heavy: QVQLVQSGAEVVKPGASVKLSCKASGYIFTSYYMYWVKQAPGQGLEWIGEINPSNGDTNFNEKFKSKATLTVDKSASTAYMELSSLRSEDTAVYYCTRSDGRNDMDSWGQGTLVTVSSASTKGPSVFPLAPCSRSTSESTAALGCLVKDYFPEPVTVSWNSGALTSGVHTFPAVLQSSGLYSLSSVVTVPSSSLGTKTYTCNVDHKPSNTKVDKRVESKYGPPCPPCPAPEFLGGPSVFLFPPKPKDTLMISRTPEVTCVVVDVSQEDPEVQFNWYVDGVEVHNAKTKPREEQFNSKYRVVSVLPVLHQDWLNGKEYKCKVSNKGLPSSIEKTISKAKGQPREPQVYTLPPSRDELTKNQVSLTCLVKGFYPSDIAVEWESNGQPENNYKTTPPVLDSDGSFFLYSKLTVDKSRWQQGNVFSCSVMHEALHNHYTQKSLSLSPG
light: B5 light
modifications: N-terminal Q largely converted to pyroglutamic acid (mass spectrometry)
notes: copies: 2 + 2
B12: YC403 (hu5c8 IgG4.P S228P, T299A, T307P, L309K, D399S, aglycosylated) (antibody)
heavy: B11 heavy with K297A, L307K, R353Q, D354E, L356M, D397S, K407R, Q417E, P443L
light: B5 light
modifications: N-terminal Q largely converted to pyroglutamic acid (mass spectrometry)
notes: copies: 2 + 2
B13: YC401 (hu5c8 IgG4.P S228P, T299A, T307P, D399S, aglycosylated) (antibody)
heavy: B11 heavy with K297A, R353Q, D354E, L356M, D397S, K407R, Q417E, P443L
light: B5 light
modifications: N-terminal Q largely converted to pyroglutamic acid (mass spectrometry)
notes: copies: 2 + 2
B14: IgG1 T299A (aglycosylated hu5c8 IgG1) (antibody)
heavy: not shown
light: B5 light
notes: also called IgG1 agly (T299A); agly IgG1
B15: IgG4.P T299A (aglycosylated hu5c8 IgG4.P S228P, T299A) (antibody)
heavy: not shown
light: B5 light
notes: also called agly IgG4.P; IgG4.P agly (S228P, T299A); copies: 2 + 2
B16: H1L3 (antibody, V domains shown)
VH: B1 VH
VL: B1 VL with S67Y, L73F, V85T
notes: also called Design H1 / Design L3
B17: EAG2377 (hu5c8 IgG1 T299N) (antibody)
heavy: not shown
light: B5 light
B18: EAG2378 (hu5c8 IgG1 T299R) (antibody)
heavy: not shown
light: B5 light
B19: EAG2379 (hu5c8 IgG1 T299E) (antibody)
heavy: not shown
light: B5 light
B20: EAG2389 (hu5c8 IgG1 T299Q) (antibody)
heavy: not shown
light: B5 light
B21: EAG2380 (hu5c8 IgG1 T299F) (antibody)
heavy: not shown
light: B5 light

target: T1, α4β1 (VLA-4) as used in the competition ELISAs (UniProt P13612 34-970; P05556 21-728); experiment: competition ELISA; mixture of mouse HP1/2 with test mAb binding to integrin

IC50	Binder
0.00455 µM	B1
0.00446 µM	B2
0.00134 µM	B3
0.00164 µM	B4

target: T2, human C1q (human, UniProt P02745 23-245; P02746 28-253; P02747 29-245); experiment: C1q ELISA
T2 construct: Bought protein; also called complement factor C1q; Sigma human C1q (C0660)
Protocol: The C1q binding assay was be performed by coating 96 well Maxisorb ELISA plates (Nalge-Nunc Rochester, N.Y., USA) with 50 μl recombinant soluble human CD40 ligand at 10 ug/ml overnight at 4° C. in PBS. The wells were aspirated and washed three times with wash buffer (PBS, 0.05% Tween 20) and blocked for 1 hour with 200 µl/well of block/diluent buffer (0.1 M Na2HP04, pH 7.0, 1 M NaCl, 0.05% Tween 20, 1% gelatin). The antibodies were diluted in block/diluent buffer with 3-fold dilutions and incubated for 2 hours at room temperature.
After aspirating and washing as above, 50 pll/well of sheep anti C1q (Serotec AHP033), diluted 3, 560-fold in block/diluent buffer, were added. After incubation for 1 h at room temperature, the wells were aspirated and washed as above. 50 pll/well of donkey anti-sheep IgG HRP conjugate (Jackson ImmunoResearch 713-035-147) diluted to 1:10,000 in block/diluent were then added, and the wells incubated for 1 h at room temperature.
After aspirating and washing as above, 100 all TMB substrate (420 plM TMB, 0.004% H2O2 in 0.1 M sodium acetate/citric acid buffer, pH 4.9) were added and incubated for 2 min before the reaction was stopped with 100 ul 2 N sulfuric acid. The absorbance was read at 450 nm with a Softmax PRO instrument, and Softmax software was used to determine the relative binding affinity (C value) with a 4-parameter fit.

binding result	Binder
no binding	B5
no binding	B6
no binding	B7
no binding	B8
no binding	B9

target: T3, CD64 (FcγRI) (UniProt P12314 16-288, limits assumed); experiment: solution competition SPR (Biacore); construct titrated into receptor, free receptor read on immobilized IgG1 MAb
Protocol: (§1) Binding to Fcγ receptors was analyzed using solution affinity surface plasmon resonance (ref Day E S, Cachero T G, Qian F, Sun Y, Wen D, Pelletier M, Hsu Y M, Whitty A. Selectivity of BAFF/BLyS and APRIL for binding to the TNF family receptors BAFFR/BR3 and BCMA. Biochemistry. 2005 Feb. 15; 44(6):1919-31.) The method utilizes conditions of so-called “mass-transport-limited” binding, in which the initial rate of ligand binding (protein binding to the senor chip) is proportional to the concentration of ligand in solution (ref BIApplications Handbook (1994) Chapter 6: Concentration measurement, pp 6-1-6-10, Pharmacia Biosensor AB). Under these conditions, binding of the soluble analyte (protein flowing over chip surface) to the immobilized protein on the chip is fast compared to the diffusion of the analyte into the dextran matrix on the chip surface. Therefore, the diffusion properties of the analyte and the concentration of analyte in solution flowing over the chip surface determine the rate at which analyte binds to the chip. In this experiment, the concentration of free Fc receptor in solution is determined by the initial rate of binding to a CM5 Biacore chip containing an immobilized IgG1 MAb. Into these Fc receptor solutions were titrated the stability engineered constructs (see Table 10.1 below). […] Initial binding rates were obtained from raw sensorgram data (FIG. 14). […] The results are shown in Table 10.1 and reported as the average of two titrations.

IC50	Binder
3020 µM	B10
2600 µM	B11
434 µM	B12
377 µM	B13
205 µM	B14
739 µM	B15

target: T1, α4β1 (VLA-4) as used in the competition …; experiment: competition ELISA; integrin preincubated with test mAb, then murine HP1/2 as competing reagent

IC50	Binder
0.00167 µM	B1
0.00049 µM	B16
0.00187 µM	B2
0.0009 µM	B3
0.00106 µM	B4

target: T3, CD64 (FcγRI); experiment: solution competition SPR (Biacore)
Protocol: as §1

IC50	Binder
4390 µM	B5
392 µM	B7
3160 µM	B8
586 µM	B17
4480 µM	B9
5970 µM	B18
196 µM	B19
455 µM	B20
345 µM	B21
